Assay: yeast display, Sf9 membrane polyspecificity reagent, FACS + sequencing; frameworks hold sequencing errors
How it was run: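 A synthetic nanobody library was expressed on Saccharomyces cerevisiae BJ5465 by galactose induction for 36–48 hours. The library was stained for 1 hour at 4 °C with 10% biotinylated, detergent-solubilized Sf9 membrane reagent and enriched with streptavidin microbeads before FACS. Low and high (top ~1%) gates were set on anti-HA fluorescence for expression and streptavidin fluorescence for reagent binding, and each polyreactivity label reflects the gate of origin.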

Row | Sequence | polyreactivity (PSR sort gate)
1 | QVQLVESGGGLVQTGGSLRLSCAASGSTFYPNTMGWYRQAPGKERELVAAITNGGSTNYADSVKGRFTISRDNAKNTVYLQMNSLKPEDTAVYYCAALYYRFLLGWYKYGYWGQGTQVTVSS | high polyreactivity
2 | QVQLVESGGGLVQAGGSLRLSCAASGSTFRHYAMGWYRQAPGKERELVAVISWGGTSTYYADSVKGRFTISRDNAKNTVYLQMNSLKPEDTAVYYCNKAYFPIFKGYEMYYWGQGTQVTVSS | low polyreactivity
3 | QVQLVESGGGLVQAGGSLRLSCAASGSILVGNAMGWYRQAPGIERELVAGSSESDGSTNYADSGKGRFTISRDKSKNTVYLPMNSLKPEETAVYYRAADIWTSGDIPYDYWGQGTQVTVSS | low polyreactivity
4 | QVQLVESGGGLVQAGGSLRLSCAASGSTFYYYAMGWYRQAPGKERELVAAISGGGNTKYADSVKGRFTISRDNAKNTVYLQMNSLKPEDTAVYYCAARLAYWYYYAWRGPYYYWGQGPQVTVSS | high polyreactivity
5 | QVQLVESGGGLVQAGGSLRLSCAASGSIFDRYGMGLYRQAPGKETELVADITSDGSTNYADSLKGRFTISRDNAKNSVYLQMNSLKREDTAVYYCAVSYTAYYVGYDYWGQGTQVTVSS | low polyreactivity
6 | QVQLVESWGGLVQAGGSLRLSCAASGITFDGNAMGWYRQAPGKERELVAGISGSGGGTYYADSVKGRFTISRDNAKNTVYLHMNSLKPEDTAVYYCAADTSTSHAYDYWGQGTQVTVSS | low polyreactivity
7 | QVQLVESGGGLVQAGGSLRLSCAASGSIFQSYAMGWYRQAPGKERELVAAISYSGDGTFYADSVKGRFTISRDNAKNTVYLQMNSLKPEDTAVYYCAASSTGYGGSTYYYWGQGTQVTVSS | low polyreactivity
8 | QVQLVESGGGLVQAGGSLRLSSAASGFTFYLNALGGYRQAPGKERELVAAISSSGGITYYADSVKGRFTISRDNAKNTVYLQMNSLKPEYTAVYYCAAYWPKYRYEADRDYWGQGTQVTVSS | low polyreactivity
9 | QVQLVESGGGLVQAGGSLRLSCAASGNIFYVYVMGGYRQAPGKERELVASITSGASTYYADSVKGRFTISRDNAKNTVYLQMNSLKPDDTAVYYCAAEALGGAGDYSTLYIYDYWGQGTQVTVSS | low polyreactivity
10 | QVQLVESGGGLVQAGGSLRLSCAASGSTFWYNDMGWYRQAPGKESELVAAITWTGDGTYYADTVKGRFTISRDNAKNTVYLQMNSLKPEDTAVYYCAAAYFQWSTSIVGLDAWYDYWGQGTQVTVSS | low polyreactivity
11 | QVQLVESGGGLVQAGGSLRLSCAASGITFPANAMGWYRQAPGKERELVAAISSSGGSTYYADSVKGRFTISRDNAKNTVYLQMNSLKPEDTAVYYCAAYYGPSRSLYYYWGQGTQVTVSS | high polyreactivity
12 | QGQLVESGGGLVQAGGSLRLSCAASGIIFEYYDMGWYRQAPGKERELVAAIDSGGSTYYADSVKGRFTISRDNAKNTVYLQMNSLKPEDTAVYYCAASRPPNTSNTGYGSWGQGTQVTVSS | low polyreactivity
13 | QVQLVESGGGLVQAGGSLRLSCAASGRIIYIYAMGWYRQAPGKERELVAAITASSGSTNYADSVKGRFTISRDNAKNTVYLQLNSLKPEDTAVYYCAAAPSRTLLRQSKYYYWGQGTQVTVSS | low polyreactivity
14 | QVQLVESGGGLVQAGGSLRLSCPASGRTMGGNAMGWYRQAPGKEREFVARISTRGVRKYYADSVKGRFTISRDNAKNTVYLQMNSLKPEDTAVYYCAKHVSYGHIGAYPDRDSWGQGTQVTVSS | low polyreactivity
15 | QVQLLESGGGLVQAGGSLRLSCAASGSTFPRNAMGWYRQAPGKERELVATITSSGGGTYYADSVKGRFTISRDNAKNTVYLQMNSLKPEDTAVDYCNADGPAGDAFDYWGQGTQVTVSS | low polyreactivity
16 | QVQLVESGGGLVQAGGSLRLSCAASGSTFAANAMGWYRQAPGKERELVAAMTSSGGSTYYADSVKGRFTISRDNAKNTVYLQMNSLKPEDTAVYYCNKDIERYVRIYDSWGQGTQVTVSS | low polyreactivity
17 | QVQLVESGGCLVQAGGSLRLSCAASGRSFRLYAMGGYRQAPGKERELVAAITRGGRTNYADSVKGRFTISRDNAKNTVYLQMNSLKPEDTAVYYCAARYVERHTDYYYWGQGTQVTVSS | low polyreactivity
18 | QFQLVESGGGLVQAGGSLRLSCAASGSTFPYYAMGWYRQAPGNERELVASIRKRGGGTYYADSVKGRFTISRDNAKNTVYFQMNILKPEDTAVYYCAVRVYQFRYTGYDYWGQGTQVTVSS | high polyreactivity
19 | QVQLVESGGGLGQAGGSLRLSCAASGFILRYNAMGWYRQAPGKERELVAAISYTGDRTYYADSVKGRFTISRDNAKNTVYLQMNSLKPEDTAVYYCKAGKGQRALVRIGSKLMYYWGHGTQVTVSS | high polyreactivity
20 | QVQLVESGGGLVQAGGSLRLSCAASGLTSIHYMGWSRQAPGKERELVATITSSTGSTYYADSVKGRFTISRDNAKNTVYLQMNSLKPEDTAVYYCAAESFGADGPYQPSYDYWGQGTQVTVSS | low polyreactivity
21 | QVQLVESGGGLVQAGGSLRLSCAASGRTFGSNAMGWYRQAPGKERELVAAITSGGGTYYADSVKGRFTISRDNAKNTVYLQMNSLKPEDTAVYYCNKLGTSFRRDYGSWGQGTQVTVSS | low polyreactivity
22 | QVQLVESGGGLVQAGGSLRLSCAASGITFQANAMGWYRQAPGKERELVAAISSSDGSTYYADSVKGRFTISRDNAKNTVYLQMNSLKPEDTAVYYCNVDYAQRVFLYDYWGQGTQVTVSS | low polyreactivity

Row | Sequence | polyreactivity (PSR sort gate)
23 | QVQLVESGGGLVQAGGSLRLSCAASGSIFRNNAMGWYIQAPGKERELVASITRRGGSTYYADSVKGRFTISRDNAKNTVYLQMNSLKPEYTAGSYCAATTQHRYTLNYWGQGTQVTVSS | high polyreactivity
24 | QVQLVESGGGLVHAGGSLRLSCAASGRTFRDNVMGWSRQAPGKERELVAAISRSGGSTYYADSVKGRFTISRDNAKHTVYLQMNSQKPEDTAVYYSNAPYYVRSQYTFDYWGQGTQVTVSS | high polyreactivity
25 | QVQLVESGGGLVQAGGSLRLSCAASGSIARNAMGWYRQAPGKERELVATISSGGGTYYADSVKGRFTISRDNAKNTVYLQMHSLKPEDTAVYYCAADGWEVPWPAIWDSLYEYWGQGTQVTVSS | high polyreactivity
26 | QDQLVESGGGLVQSGGSLLLSCAPSGSMFSFYAMGCYRQAPGKEMELVAAITRGGATTNFADSVKGRFTISRDNAKNTVYLQMNSLKPEDTAVYYCAARTPNVNAVWMDYWGQGTQVTVSS | high polyreactivity
27 | QVQLVESGGGIVQAGGSLRLSCAASGSIFGPYAMGWYRQAPGKERELVAAITWTGGRTYYADSVKGRFTISRDNAKNTVYLQMNSLKPEDTAVYYCAADYSPSTWYLYYTLYYYWGQGTQVTVSS | low polyreactivity
28 | QVQLVESGGGLLQAGGSLPLSCAASGRIFHQYAMGWYRQAPGKERELVAAISKTGTRTYYADSVKGRFTISRDNAKNTVYFQINSLKPDDTAVYYCNALYWTVYSREYDYWGQATQVTVSS | high polyreactivity
29 | QVQLVESGGCLVQAGGSLRLSCAASGFTFSSNAMGWYRQAPGKERELVAAISFNSTSTYYADSVKGRFTISRDNAKNTVYLQMNSLKPEDTAVYYCAADVPRVQSEPEYDYWGQGTQVTVSS | low polyreactivity
30 | QVQLVESGGGLVQAGGSLRLICAASGSIFVGNAMCWYSQATGKERELVATITSGGSTYYADSVKGRFTISRDNAMNTVYLQMNSLKPEDTSVYNCAADYEFSKFDYVYWGQGTQVTVSS | low polyreactivity
31 | QVQLVESGGGLVQAGGSLRLSCAASGSIKQNSMGWYRQAPGKERELVAAIDWDGSSTYYADSVKGRFTISRDNAKNTVYLQMNSLKPEDTAVYYCNTDYTGPDGTDEYDYWGQVTQVTVSS | low polyreactivity
32 | QVQLVESGGGLVQAGGSLRLSCAASGFIFTRYAMGWYRQAPGKERELVAGINRSGSRTYYADSVKGRFKISRDNAKNTVYLQMNSLKPEDTAVYYCATDTWYLYSTLDYWGQGTQVTVSS | high polyreactivity
33 | QVQLVESGGGLVQAGGSLRLSCAASGSNFHPNAMGSCRQAPGKERELVAAITKSGGSTYYADSVKGRFTISRDNAKNTVYLQMNSRKPEDTAVYYCNALRYRRVGTLGYDYWGQATQVTVSS | high polyreactivity
34 | QDQLVESGGGLVQAGGSLRLSCAASGIILRYYVMGWYRQAPGKERELVAAITSRGGSTYYADSVKGRFTISRDNAKNTVYLQMNSLKPEDTAVYYCAAGYRNVNTFDYWGQGTQVTVSS | high polyreactivity
35 | QVQLVESGGGLVQAGGSLRLSCAASGSTFGYYAMGWYRQAPVKERELVAAISAGDRTYYADSVKGRFTISRDNATNTLYLQMNSLKPEDTAVYYSAARPLRSRNGYYWGQGTQGTVSS | high polyreactivity
36 | LVQHVESGGGIVQAGGSLRLICAASGFPYNYYAMGWYRQAPGTEREFVAAISSGGGSTYYAYSVKGRFTISRDNAKNTVYLQMNSLKPEDTSGYYCAADRYSHYGYWGQATQVTVSS | low polyreactivity
37 | QVQLVESGGGLVQAGGSLRISCAASGRTFPRYAMGWYRQAPGKERELVAGISWSGGRTYYADSVKGRFTISRDNAKNTVYLQMNSLKPEDTAVYYCAVVSKNLSYRTTFYYWGQGTQVTVSS | high polyreactivity
38 | QVQLVESGGGLVQAGGSLRLSCAASGNTFVINTMGWYRQAPGKERELVAGISRRGTSTYYEDSVKGRFTISRDNAKNSVYLQMNSLKPEDTEVYYCAVYSEIVRYEYWGQGTQVTVSS | high polyreactivity
39 | QVQLVESGGGLVHAGGSLRLSCAASGLIFRAYAMGWYRQAPGKERELVAAITSSSGSTYYADSVKGRFTISRDIAKNTVYLEMNSLKPEDTAVSYCNAYSTFGWYDYWGQGTQVTVSS | low polyreactivity
40 | QVQLVESGGGLVQAGGSLRLSCAASGSIFAKNAMGWYRQAPGKERELVAAITFIGGDTYYADSVKGRFTISRDNAKNTVYLQMNSLKPEDTAVFYCNRALLVTSIYPYLFGSGWYDYWGQGTQVTVSS | low polyreactivity
41 | QVQLVETGGGLFQAGGSLRLSCAPCGSIFFSIAMGWYRQAPGKDRELVAAIDSGASSTYADSVKGRFTSSRDHAKNTVYLQINSLKPEDTAVYYFAADYPATGADGYDYWGQVTQVTVSS | low polyreactivity
42 | QVQIVESGGGLVQAGGSLRLSCAASGSIFGTYAMGRYRQAPGKERELVAAINSGDSTYYADSVKGRFTISRDNAKNTVYLQMNSLKPEDTAVYYCGARETYWSGYFIYYYWGQGTQVNVSS | high polyreactivity
43 | QVQLVESGGGLVQPGGSLRLSCAASGRTFGYNAMGWYRQAPGKERELVAAIRYSGGSTYYADSVKGRFTISRDNAKNTVYLQMNSLKPEDTAVYYCAAYSLFSSYGNDYWGQGTQVTVSS | high polyreactivity

From the nanobody polyreactivity screen of Harvey et al. (2022)
